{"source": "paper PMC7348807", "key": {"thrombin [1]": {"molecular_target": "T1, thrombin (UniProt P00734;P00734 328-363;364-622)", "assay": "kinetic exclusion assay (KinExA), two-population competitive fit; hypothetical second FA population (16%); the other 84% fixed at Kd 298 pM; PBS with 0.02% sodium azide and 1 mg/mL BSA; incubation 2 h (50 pM, 1 nM FA) or 6.5 h (10 pM FA); thrombin 5 pM to 1 uM; pH and temperature not stated"}, "thrombin [2]": {"molecular_target": "T1, thrombin", "assay": "kinetic exclusion assay (KinExA), n-curve analysis; 1:1 model; FA 10 pM, 50 pM, 1 nM; fitted FA activity ~47%; 1:1 fit deviates at high thrombin; PBS with 0.02% sodium azide and 1 mg/mL BSA; incubation 2 h (50 pM, 1 nM FA) or 6.5 h (10 pM FA); thrombin 5 pM to 1 uM; pH and temperature not stated"}}, "data": [{"binder": "AGTCCGTGGTAGGGCAGGTTGGGGTGACT (structured_DNA)", "note": "[29-nt thrombin aptamer (Tasset et al.), fluorescent aptamer FA]", "values": [{"measurement": "Kd", "setting": "thrombin [1]", "result": 0.5, "unit": "µM"}, {"measurement": "Kd", "setting": "thrombin [2]", "result": 0.000298, "unit": "µM"}]}]}
